We go through seven variants from FireProtDB (doi:10.1021/bi0118052).

Several values for one entry are separate records, joined by “and”; a condition that tells them apart may be missing. Equal entries are not always repeated.

B1: Protein S100-B, P04271 (parent)
chain: MSELEKAMVALIDVFHQYSGREGDKHKLKKSELKELINNELSHFLEEIKEQEVVDKVMETLDNDGDGECDFQEFMAFVAMVTTACHEFFEHE

This series covers variants of B1. To be noted: Homo sapiens; pH 7.2; 25 °C; GdnHCl; CD; MOPS 10 mM; KCl 50 mM; reversible: yes; structure 1UWO; whole UniProt chain shown.

Consider I12A, for which the denaturant m value was 2.75 kcal/mol/M and 1.43 kcal/mol/M; the “denaturant midpoint (higher = more stable)” value (shortened to “denaturant midpoint”) was 2.3 M and 4.2 M; the unfolding free energy was 13.2 kcal/mol.

L4S: the denaturant m value is 3.3 kcal/mol/M and 2.29 kcal/mol/M; the “denaturant midpoint” value is 2.4 M and 3.2 M; the unfolding free energy stood at 14.5 kcal/mol.

As to L4A, the denaturant m value was 3.49 kcal/mol/M and 1.58 kcal/mol/M; the “denaturant midpoint” value is 2.7 M and 3.7 M; the unfolding free energy was determined as 16.1 kcal/mol.

With M8A, the “ddG of mutation (higher = less stable)” value amounted to 0.65 kcal/mol, the denaturant m value came to 1.36 kcal/mol/M and the “denaturant midpoint” value is 3.6 M.

F15A: the “ddG of mutation (higher = less stable)” value is 7.53 kcal/mol and 3.42 kcal/mol; the denaturant m value is 1.94 kcal/mol/M and 1.08 kcal/mol/M; the “denaturant midpoint” value was 1.8 M and 2.3 M; the unfolding free energy stood at 9.78 kcal/mol.

L4A F15A: the “ddG of mutation (higher = less stable)” value is 8.94 kcal/mol and 5.16 kcal/mol; the denaturant m value was 1.67 kcal/mol/M and 0.81 kcal/mol/M; the “denaturant midpoint” value was 1.3 M and 1.7 M; the unfolding free energy is 8.39 kcal/mol.

For L4A I12A, the denaturant m value is 2.84 kcal/mol/M and 1.77 kcal/mol/M; the “denaturant midpoint” value is 2.1 M and 3.3 M; the unfolding free energy worked out at 12.2 kcal/mol.
